Source: article PMC7218058

Assays:
[1] = target: human FcγRIIIa 158Phe, biotinylated (UniProt P08637); experiment: SPR; settings: read off a plot
[2] = target: human FcγRIIIa 158Val, biotinylated; experiment: SPR; settings: read off a plot
[3] = target: human FcγRIIIa 158Phe, biotinylated (UniProt P08637); experiment: SPR; IBIS MX96; biotinylated human FcγR spotted on a SensEye G-Streptavidin sensor at 1, 3, 10 and 30 nM; 2-fold dilution series of IgG (0.49 to 1000 nM) flowed over; Kd by equilibrium fitting, interpolated to Rmax 500
[4] = target: human FcγRIIIa 158Val, biotinylated (human); experiment: as above
[5] = target: anti-kappa nanobody; experiment: cSPR (cellular SPR, opsonized RBCs); settings: density of 1 nM and opsonization concentration of 0.625 μg/ml; parent: est. 610; read off a plot
[6] = target: human FcγRIIIa 158Phe, biotinylated (UniProt P08637); experiment: cSPR (cellular SPR, opsonized RBCs); settings: receptor density of 30 nM and opsonization concentration of 0.625 μg/ml; parent: est. 250; read off a plot
[7] = target: human FcγRIIIa 158Val, biotinylated; experiment: cSPR (cellular SPR, opsonized RBCs); settings: receptor density of 10 nM and opsonization concentration of 1.25 μg/ml; parent: est. 200; read off a plot
[8] = target: human FcγRIIa 131Arg, biotinylated; experiment: cSPR (cellular SPR, opsonized RBCs); settings: receptor density of 30 nM and opsonization concentration of 0.625 μg/ml; parent: est. 210; read off a plot
[9] = target: human FcγRIIa 131His, biotinylated (UniProt P12318); experiment: cSPR (cellular SPR, opsonized RBCs); settings: receptor density of 30 nM and opsonization concentration of 2.5 μg/ml; parent: est. 310; read off a plot
Sequence of human FcγRIIa 131His, biotinylated (P12318 34-217): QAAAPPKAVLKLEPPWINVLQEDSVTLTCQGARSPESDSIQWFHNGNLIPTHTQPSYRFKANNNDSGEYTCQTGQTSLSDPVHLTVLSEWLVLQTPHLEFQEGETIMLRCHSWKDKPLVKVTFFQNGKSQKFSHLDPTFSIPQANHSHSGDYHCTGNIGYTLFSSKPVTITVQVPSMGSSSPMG

Sequence of human FcγRIIIa 158Phe, biotinylated (P08637 17-208): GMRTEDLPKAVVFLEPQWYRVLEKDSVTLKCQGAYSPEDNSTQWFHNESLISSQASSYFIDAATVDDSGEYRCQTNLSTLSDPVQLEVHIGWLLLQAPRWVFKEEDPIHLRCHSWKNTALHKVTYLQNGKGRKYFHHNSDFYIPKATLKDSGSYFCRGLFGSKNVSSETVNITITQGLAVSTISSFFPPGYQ

Substance: anti-RhD IgG3 allotype IGHG3*17 R292W
- Kd ([1]; parent: est. 9.2e-7): 2800 nM
- Kd ([2]; parent: est. 2.1e-7): 540 nM

Substance: anti-RhD IgG3 allotype IGHG3*19 (antibody)
- fold reduction of affinity against other IgG3 allotypes [3]: 3 fold
- fold reduction of affinity against other IgG3 allotypes [4]: 3 fold

Substance: anti-RhD IgG3 allotype IGHG3*01 R292W
- Kd ([1]; parent: est. 8.1e-7): 1900 nM
- Kd ([2]; parent: est. 1.7e-7): 340 nM

Substance: anti-RhD IgG3 allotype IGHG3*17 R292E
- Kd ([1]; parent: est. 9.2e-7): 2700 nM
- Kd ([2]; parent: est. 2.1e-7): 580 nM

Substance: anti-RhD IgG3 allotype IGHG3*12 F296Y; P291L
- Kd ([2]; parent: est. 2.5e-7): 210 nM
- other: avidity (AUC) [5]: 640
- other: avidity (AUC) [6]: 50
- other: avidity (AUC) [7]: 55
- other: avidity (AUC) [8]: 11
- other: avidity (AUC) [9]: 45

Substance: anti-RhD IgG1 allotype IGHG1*03 R292W
- Kd ([1]; parent: est. 1.5e-6): 4400 nM
- Kd ([2]; parent: est. 2.7e-7): 470 nM

Substance: anti-RhD IgG3 allotype IGHG3*18 W292R
- Kd ([1]; parent: est. 2.6e-6): 880 nM
- Kd ([2]; parent: est. 5.4e-7): 210 nM

Substance: anti-RhD IgG3 allotype IGHG3*17 R292A
- Kd ([1]; parent: est. 9.2e-7): 860 nM
- Kd ([2]; parent: est. 2.1e-7): 220 nM

Substance: anti-RhD IgG3 allotype IGHG3*17 R292L
- Kd ([1]; parent: est. 9.2e-7): 860 nM
- Kd ([2]; parent: est. 2.1e-7): 210 nM

Substance: anti-RhD IgG3 allotype IGHG3*18 (antibody)
- fold reduction of affinity against other IgG3 allotypes [3]: 3 fold
- fold reduction of affinity against other IgG3 allotypes [4]: 3 fold

Substance: anti-RhD IgG3 allotype IGHG3*17 R292H
- Kd ([1]; parent: est. 9.2e-7): 810 nM
- Kd ([2]; parent: est. 2.1e-7): 200 nM
